The record followed here is the supplement of paper PMC7877785.

± gives the uncertainty stated by the source.

This series in a line: self-splicing fitness, log relative to wild type (ln ratio); higher = more splicing; Tetrahymena group I intron in knt gene, E. coli kanamycin selection, DiMSum; sequences stand for … in CUCUCU…GGAGGGAAAAGUUAUCAGGCAUGCACCUGGUAGCUAGUCUUUAAACCAAUAGAUUGCAUCGGUUUAAAAGGCAAGACCGUCAAAUUGCGGGAAAGGGGUCAACAGCCGUUCAGUACCAAGUCUCAGGGGAAACUUUGAGAUGGCCUUGCAAAGGGUAUGGUAAUAAGCUGACGGACAUGGUCCUAACCACGCAGCCAAGUCCUAAGUCAACAGAUCUUCUGUUGAUAUGGAUGCAGUUCACAGACUAAAUGUCGGUCGGGGAAGAUGUAUUCUUCUCAUAAGAUAUAGUCGGACCUCUCCUUAAUGGGAGCUAGCGGAUGAAGUGAUGCAACACUGGAGCCGCUGGGAACUAAUUUGUAUGCGAAAGUAUAUUGAUUAGUUUUGGAGUACUCGUGGUCG
In a few lines: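 The eight P1ex-region nucleotides of an intron in the knt kanamycin-resistance gene on pET-22b(+) were all randomised and the library put into E. coli BL21(DE3). Six replicate transformations were grown overnight at 37°C or 30°C on LB agar with or without 25 μg/mL kanamycin, together with 100 μg/mL carbenicillin, 50 μM IPTG and 0.2% rhamnose. Colonies were pooled and amplicon-sequenced on an Illumina HiSeq 2500. Fitness from DiMSum is the error-weighted combination of wild-type-normalised replicate fold changes, kanamycin over none.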

Regarding AUGCAGCAAUAUUACGUAGU, the “self-splicing fitness (ln)” value runs as follows: (30 °C) -1.46 ± 0.088; (37 °C) -0.542 ± 0.089.
AUGCAGCAAUAUUACGUGAA: the “self-splicing fitness (ln)” value is, setting by setting: (30 °C) -2.44 ± 0.12; (37 °C) -0.683 ± 0.13.
On the same counts, the results for AUGCAGCAAUAUUACGUGCC are -1.08 ± 0.11 and -0.869 ± 0.15.
AUGCAGCAAUAUUACGUGCG: the “self-splicing fitness (ln)” value (30 °C) was -0.943 ± 0.061 and the “self-splicing fitness (ln)” value (37 °C) was -0.294 ± 0.076.
On to AUGCAGCAAUAUUACGUUAC, for which the “self-splicing fitness (ln)” value by setting is: (30 °C) -3.57 ± 0.3; (37 °C) -1.54 ± 0.22.
On the same counts, the results for AUGCAGCAAUAUUACGUUAG are -3.05 ± 0.15 and -2.38 ± 0.2.
The like results for AUGGAGCAAUAUUACGAUAG were, in that order, -3.59 ± 0.4 and -1.67 ± 0.32.
The like results for AUGGAGCAAUAUUACGCAAG were, in that order, -4.55 ± 0.42 and -1.09 ± 0.31.
For AUGGAGCAAUAUUACGCAUU, the “self-splicing fitness (ln)” value is -3.12 ± 0.22 (30 °C) and -1.84 ± 0.22 (37 °C).
For the sequence AUGGAGCAAUAUUACGCCUA, the “self-splicing fitness (ln)” value is, setting by setting: (30 °C) -0.868 ± 0.14; (37 °C) -0.981 ± 0.18.
Consider AUGGAGCAAUAUUACGCGCG, for which the “self-splicing fitness (ln)” value (30 °C) is -2.41 ± 0.17 and the “self-splicing fitness (ln)” value (37 °C) is -1.27 ± 0.19.
As for AUGGAGCAAUAUUACGCGUU, the “self-splicing fitness (ln)” value reads like this: (30 °C) -3.93 ± 0.21; (37 °C) -3.05 ± 0.24.
Regarding AUGGAGCAAUAUUACGGAUG, the “self-splicing fitness (ln)” value (37 °C) was -2.29 ± 0.37.
Consider AUGGAGCAAUAUUACGGGAC, for which the “self-splicing fitness (ln)” value is, setting by setting: (30 °C) -5.23 ± 0.41; (37 °C) -2.7 ± 0.25.
As for AUGGAGCAAUAUUACGGGGG, the “self-splicing fitness (ln)” value by setting is: (30 °C) -3.55 ± 0.43; (37 °C) -2.21 ± 0.35.
Regarding AUGGAGCAAUAUUACGUAAC, the “self-splicing fitness (ln)” value by setting is: (30 °C) -2.91 ± 0.34; (37 °C) -2.29 ± 0.46.
For the sequence AUGGAGCAAUAUUACGUAGC, the “self-splicing fitness (ln)” value (37 °C) was -1.93 ± 0.3.
With AUGGAGCAAUAUUACGUAUA, the “self-splicing fitness (ln)” value (30 °C) is -1.75 ± 0.45 and the “self-splicing fitness (ln)” value (37 °C) was -2.02 ± 0.36.
On the same counts, the results for AUGGAGCAAUAUUACGUCCA are -0.783 ± 0.45 and -0.778 ± 0.34.
On the same counts, the results for AUGGAGCAAUAUUACGUCCU are -0.886 ± 0.24 and -1.35 ± 0.29.
With AUGGAGCAAUAUUACGUGCG, the “self-splicing fitness (ln)” value runs as follows: (30 °C) -3.44 ± 0.32; (37 °C) -1.8 ± 0.23.
The like results for AUGGAGCAAUAUUACGUUCA were, in that order, -1.16 ± 0.12 and -0.311 ± 0.14.
With AUGGAGCAAUAUUACGUUGG, the “self-splicing fitness (ln)” value runs as follows: (30 °C) -4.65 ± 0.39; (37 °C) -2.35 ± 0.23.
Take AUGUAGCAAUAUUACGAACC: the “self-splicing fitness (ln)” value (30 °C) was -1 ± 0.18 and the “self-splicing fitness (ln)” value (37 °C) was -0.513 ± 0.22.
Take AUGUAGCAAUAUUACGAAGA: the “self-splicing fitness (ln)” value (37 °C) was -0.739 ± 0.21.
With AUGUAGCAAUAUUACGAAUC, the “self-splicing fitness (ln)” value (37 °C) was -2.91 ± 0.29.
AUGUAGCAAUAUUACGACUC: the “self-splicing fitness (ln)” value (30 °C) amounted to 0.285 ± 0.12 and the “self-splicing fitness (ln)” value (37 °C) was determined as 0.585 ± 0.18.
Turning to AUGUAGCAAUAUUACGCAGU, the “self-splicing fitness (ln)” value by setting is: (30 °C) -2.49 ± 0.12; (37 °C) -1.29 ± 0.11.
Regarding AUGUAGCAAUAUUACGCAUU, the “self-splicing fitness (ln)” value was -3.93 ± 0.18 (30 °C) and -2.89 ± 0.23 (37 °C).
As for AUGUAGCAAUAUUACGCCAA, the “self-splicing fitness (ln)” value runs as follows: (30 °C) -0.877 ± 0.19; (37 °C) -1.5 ± 0.19.
Turning to AUGUAGCAAUAUUACGCCCA, the “self-splicing fitness (ln)” value by setting is: (30 °C) -0.905 ± 0.12; (37 °C) -0.148 ± 0.2.
On the same counts, the results for AUGUAGCAAUAUUACGCCCU are 0.267 ± 0.097 and 0.0833 ± 0.098.
Turning to AUGUAGCAAUAUUACGCUCG, the “self-splicing fitness (ln)” value (30 °C) was -0.227 ± 0.078 and the “self-splicing fitness (ln)” value (37 °C) came out at 0.00954 ± 0.13.
On to AUGUAGCAAUAUUACGGAUG, for which the “self-splicing fitness (ln)” value was -3.13 ± 0.31 (30 °C) and -2.82 ± 0.41 (37 °C).
On the same counts, the results for AUGUAGCAAUAUUACGGCCG are -2.32 ± 0.31 and -0.303 ± 0.33.
For AUGUAGCAAUAUUACGGCUC, for the setting “30 °C”, the “self-splicing fitness (ln)” value was determined as 0.231 ± 0.27.
As for AUGUAGCAAUAUUACGGGAA, the “self-splicing fitness (ln)” value runs as follows: (30 °C) -2.34 ± 0.38; (37 °C) -3.07 ± 0.47.
AUGUAGCAAUAUUACGGGCG: the “self-splicing fitness (ln)” value is -1.33 ± 0.091 (30 °C) and -1.28 ± 0.1 (37 °C).
On the same counts, the results for AUGUAGCAAUAUUACGGGGC are -4.82 ± 0.34 and -2.87 ± 0.19.
Regarding AUGUAGCAAUAUUACGGUCA, the “self-splicing fitness (ln)” value runs as follows: (30 °C) -0.793 ± 0.14; (37 °C) -0.745 ± 0.13.
For the sequence AUGUAGCAAUAUUACGGUGC, the “self-splicing fitness (ln)” value (30 °C) is -2.55 ± 0.3.
For AUGUAGCAAUAUUACGUACU, the “self-splicing fitness (ln)” value was -0.0156 ± 0.06 (30 °C) and -0.16 ± 0.073 (37 °C).
Regarding AUGUAGCAAUAUUACGUAGA, the “self-splicing fitness (ln)” value is, setting by setting: (30 °C) -3.11 ± 0.32; (37 °C) -2.65 ± 0.29.
Turning to AUGUAGCAAUAUUACGUCGG, the “self-splicing fitness (ln)” value reads like this: (30 °C) -3.01 ± 0.35; (37 °C) -2.18 ± 0.28.
For AUGUAGCAAUAUUACGUGAC, the “self-splicing fitness (ln)” value was -4.13 ± 0.34 (30 °C) and -0.782 ± 0.2 (37 °C).
On to AUGUAGCAAUAUUACGUGCU, for which the “self-splicing fitness (ln)” value runs as follows: (30 °C) -1.29 ± 0.081; (37 °C) -0.985 ± 0.09.
For the sequence AUGUAGCAAUAUUACGUUAA, the “self-splicing fitness (ln)” value by setting is: (30 °C) -3.07 ± 0.22; (37 °C) -2.3 ± 0.14.
The like results for AUGUAGCAAUAUUACGUUGU were, in that order, -3.85 ± 0.15 and -1.27 ± 0.092.
As to AUGUAGCAAUAUUACGUUUC, the “self-splicing fitness (ln)” value (30 °C) is -2.86 ± 0.24 and the “self-splicing fitness (ln)” value (37 °C) was -2.55 ± 0.26.
For AUUAAGCAAUAUUACGACGG, the “self-splicing fitness (ln)” value by setting is: (30 °C) -2.32 ± 0.23; (37 °C) -2.54 ± 0.41.
On the same counts, the results for AUUAAGCAAUAUUACGACGU are 0.564 ± 0.087 and 0.495 ± 0.093.
The like results for AUUAAGCAAUAUUACGACUC were, in that order, 0.675 ± 0.23 and -0.203 ± 0.36.
In the case of AUUAAGCAAUAUUACGAGCG, the “self-splicing fitness (ln)” value by setting is: (30 °C) -0.827 ± 0.1; (37 °C) -0.58 ± 0.13.
AUUAAGCAAUAUUACGAUAA: the “self-splicing fitness (ln)” value (30 °C) was -1.48 ± 0.12 and the “self-splicing fitness (ln)” value (37 °C) is -0.391 ± 0.14.
Take AUUAAGCAAUAUUACGAUUG: the “self-splicing fitness (ln)” value reads like this: (30 °C) -2.98 ± 0.15; (37 °C) -1.86 ± 0.2.
For the sequence AUUAAGCAAUAUUACGCAAU, the “self-splicing fitness (ln)” value reads like this: (30 °C) -1.74 ± 0.13; (37 °C) -2.34 ± 0.23.
The like results for AUUAAGCAAUAUUACGCCAU were, in that order, -1.86 ± 0.2 and -1.52 ± 0.15.
On the same counts, the results for AUUAAGCAAUAUUACGCCUC are -2.77 ± 0.18 and -1.42 ± 0.16.
Consider AUUAAGCAAUAUUACGCGUC, for which the “self-splicing fitness (ln)” value (30 °C) is -2.77 ± 0.3 and the “self-splicing fitness (ln)” value (37 °C) was -2.19 ± 0.38.
On the same counts, the results for AUUAAGCAAUAUUACGCGUU are -1.78 ± 0.11 and -0.33 ± 0.12.
For AUUAAGCAAUAUUACGCUGA, the “self-splicing fitness (ln)” value (30 °C) is -2.36 ± 0.41 and the “self-splicing fitness (ln)” value (37 °C) was -0.862 ± 0.28.
In the case of AUUAAGCAAUAUUACGCUGG, the “self-splicing fitness (ln)” value is -1.25 ± 0.12 (30 °C) and -1.39 ± 0.22 (37 °C).
In the case of AUUAAGCAAUAUUACGGAAG, the “self-splicing fitness (ln)” value was -3.07 ± 0.17 (30 °C) and -1.29 ± 0.2 (37 °C).
On the same counts, the results for AUUAAGCAAUAUUACGGGAA are -2.09 ± 0.26 and -1.43 ± 0.23.
The like results for AUUAAGCAAUAUUACGGUAG were, in that order, -4.09 ± 0.29 and -2.57 ± 0.22.
On to AUUAAGCAAUAUUACGGUCC, for which the “self-splicing fitness (ln)” value is, setting by setting: (30 °C) -0.321 ± 0.14; (37 °C) -0.358 ± 0.19.
On to AUUAAGCAAUAUUACGGUGG, for which the “self-splicing fitness (ln)” value reads like this: (30 °C) -3.17 ± 0.28; (37 °C) -1.94 ± 0.22.
On the same counts, the results for AUUAAGCAAUAUUACGUACC are -2.05 ± 0.23 and 0.0479 ± 0.26.
With AUUAAGCAAUAUUACGUCAA, the “self-splicing fitness (ln)” value (30 °C) was -2.1 ± 0.22 and the “self-splicing fitness (ln)” value (37 °C) was -0.766 ± 0.16.
With AUUAAGCAAUAUUACGUGAA, the “self-splicing fitness (ln)” value by setting is: (30 °C) -1.55 ± 0.14; (37 °C) -1.5 ± 0.11.
For AUUAAGCAAUAUUACGUGGA, the “self-splicing fitness (ln)” value was -3.32 ± 0.2 (30 °C) and -1.05 ± 0.12 (37 °C).
On the same counts, the results for AUUAAGCAAUAUUACGUGGC are -2.43 ± 0.15 and -1.71 ± 0.16.
For AUUAAGCAAUAUUACGUGUU, the “self-splicing fitness (ln)” value is, setting by setting: (30 °C) -2.6 ± 0.11; (37 °C) -0.83 ± 0.098.
With AUUAAGCAAUAUUACGUUCC, the “self-splicing fitness (ln)” value was -3.07 ± 0.29 (30 °C) and -0.839 ± 0.27 (37 °C).
Take AUUCAGCAAUAUUACGAAAU: the “self-splicing fitness (ln)” value is -1 ± 0.091 (30 °C) and -0.557 ± 0.1 (37 °C).
As to AUUCAGCAAUAUUACGACCA, the “self-splicing fitness (ln)” value is, setting by setting: (30 °C) -0.206 ± 0.26; (37 °C) 0.501 ± 0.29.
The like results for AUUCAGCAAUAUUACGAUCU were, in that order, -0.272 ± 0.057 and 0.457 ± 0.078.
